Reference: patent US20250145684A1 (IMMATICS BIOTECHNOLOGIES, published 2025)

Each binder was assayed against T1, HLA-B*08:01 (human) (assay: UV peptide exchange ELISA).
T1 construct: MHC monomer first loaded with a UV-sensitive peptide that is cleaved by UV light and exchanged for the test peptide
Source text: Candidate peptides for T cell based therapies according to the present invention were further tested for their MHC binding capacity (affinity). The individual peptide-MHC complexes were produced by UV-ligand exchange, where a UV-sensitive peptide is cleaved upon UV-irradiation and exchanged with the peptide of interest as analyzed. Only peptide candidates that can effectively bind and stabilize the peptide-receptive MHC molecules prevent dissociation of the MHC complexes. To determine the yield of the exchange reaction, an ELISA was performed based on the detection of the light chain (β2m) of stabilized MHC complexes. The assay was performed as generally described in Rodenko et al. (Rodenko et al., 2006).
96 well MAXISorp plates (NUNC) were coated over night with 2 ug/ml streptavidin in PBS at room temperature, washed 4× and blocked for 1 h at 37° C. in 2% BSA containing blocking buffer. Refolded HLA-A*02:01/MLA-001 monomers served as standards, covering the range of 15-500 ng/ml. Peptide-MHC monomers of the UV-exchange reaction were diluted 100-fold in blocking buffer. Samples were incubated for 1 h at 37° C., washed four times, incubated with 2 ug/ml HRP conjugated anti-β2m for 1 h at 37° C., washed again and detected with TMB solution that is stopped with […]. Absorption was measured at 450 nm. Candidate peptides that show a high exchange yield (preferably higher than 50%, most preferred higher than 75%) are generally preferred for a generation and production of antibodies or fragments thereof, and/or T cell receptors or fragments thereof, as they show sufficient avidity to the MHC molecules and prevent dissociation of the MHC complexes.

| Binder | peptide exchange yield [%] |
| --- | --- |
| EEYKFPSL [EEYKFPSL (SEQ ID NO: 212)] | 20 to 50 |
| DNHPRLVTL [DNHPRLVTL (SEQ ID NO: 218)] | 50 to 75 |
| YVIQRQSVL [YVIQRQSVL (SEQ ID NO: 176)] | 20 to 50 |
| DLISPRQPRL [DLISPRQPRL (SEQ ID NO: 186)] | 20 to 50 |
| LSLVRKAL [LSLVRKAL (SEQ ID NO: 18)] | 50 to 75 |
| RIPEKASFL [RIPEKASFL (SEQ ID NO: 202)] | 20 to 50 |
| FPSQVPKQVL [FPSQVPKQVL (SEQ ID NO: 171)] | 20 to 50 |
| DVISKGVSL [DVISKGVSL (SEQ ID NO: 211)] | 20 to 50 |
| EGNQKSVI [EGNQKSVI (SEQ ID NO: 195)] | 20 to 50 |
| AQKAELIAL [AQKAELIAL (SEQ ID NO: 222)] | 20 to 50 |
| LAVRHLSL [LAVRHLSL (SEQ ID NO: 220)] | 20 to 50 |
| PYEKVSRL [PYEKVSRL (SEQ ID NO: 172)] | 20 to 50 |
| YKAYPSQL [YKAYPSQL (SEQ ID NO: 197)] | 20 to 50 |
| MELKTVKPI [MELKTVKPI (SEQ ID NO: 185)] | 20 to 50 |
| DAPRHRLL [DAPRHRLL (SEQ ID NO: 214)] | 20 to 50 |
| ELLNRIYF [ELLNRIYF (SEQ ID NO: 190)] | 20 to 50 |
| VRNPKILIL [VRNPKILIL (SEQ ID NO: 219)] | 20 to 50 |
| VPYNSVLF [VPYNSVLF (SEQ ID NO: 187)] | 20 to 50 |
| LRKRKSPE [LRKRKSPE (SEQ ID NO: 207)] | 20 to 50 |
| YVSKPGAQL [YVSKPGAQL (SEQ ID NO: 183)] | 20 to 50 |
| HVQDFTAF [HVQDFTAF (SEQ ID NO: 168)] | 20 to 50 |
| LDLRQKVL [LDLRQKVL (SEQ ID NO: 196)] | 20 to 50 |
| VLSGGRILAL [VLSGGRILAL (SEQ ID NO: 166)] | 20 to 50 |

| Binder | peptide exchange yield [%] |
| --- | --- |
| FPSLFINQF [FPSLFINQF (SEQ ID NO: 213)] | 20 to 50 |
| YPLLKDPSL [YPLLKDPSL (SEQ ID NO: 173)] | 50 to 75 |
| FPLTSIIAI [FPLTSIIAI (SEQ ID NO: 198)] | 50 to 75 |
| MSPLLRSI [MSPLLRSI (SEQ ID NO: 204)] | 20 to 50 |
| IPFIHLPEI [IPFIHLPEI (SEQ ID NO: 199)] | 20 to 50 |
| RAIEHVLQV [RAIEHVLQV (SEQ ID NO: 194)] | 50 to 75 |
| SLKEELLSL [SLKEELLSL (SEQ ID NO: 221)] | 50 to 75 |
| SVPVRSSPL [SVPVRSSPL (SEQ ID NO: 177)] | 20 to 50 |
| YMQYGFLSM [YMQYGFLSM (SEQ ID NO: 205)] | 20 to 50 |
| ILKRFLAC [ILKRFLAC (SEQ ID NO: 20)] | 50 to 75 |
| DVYTQVSAF [DVYTQVSAF (SEQ ID NO: 203)] | 20 to 50 |
| QPNTHQLL [QPNTHQLL (SEQ ID NO: 210)] | 20 to 50 |
| ILHLSAIAL [ILHLSAIAL (SEQ ID NO: 182)] | ≥ 75 |
| LPLTEHEL [LPLTEHEL (SEQ ID NO: 179)] | 50 to 75 |
| YELNNLHAL [YELNNLHAL (SEQ ID NO: 169)] | 20 to 50 |
| SIRSSYSRF [SIRSSYSRF (SEQ ID NO: 181)] | 20 to 50 |
| HAMPSPRIL [HAMPSPRIL (SEQ ID NO: 174)] | 20 to 50 |
| NPLIEIISI [NPLIEIISI (SEQ ID NO: 215)] | 20 to 50 |
| LPAPIPTLL [LPAPIPTLL (SEQ ID NO: 164)] | 20 to 50 |
| ETIKGHSVRL [ETIKGHSVRL (SEQ ID NO: 217)] | 20 to 50 |
| RILKRFLAC [RILKRFLAC (SEQ ID NO: 21)] | 50 to 75 |
| DMKITVSL [DMKITVSL (SEQ ID NO: 167)] | 50 to 75 |
| MRFQQFLFA [MRFQQFLFA (SEQ ID NO: 175)] | 10 to 20 |

| Binder | peptide exchange yield [%] |
| --- | --- |
| EIMEKTTL [EIMEKTTL (SEQ ID NO: 188)] | 20 to 50 |
| QNSLRHNL [QNSLRHNL (SEQ ID NO: 165)] | 20 to 50 |
| LGGLRLTAL [LGGLRLTAL (SEQ ID NO: 193)] | 20 to 50 |
| LAVPIFVAL [LAVPIFVAL (SEQ ID NO: 180)] | 20 to 50 |
| LFKQTKINL [LFKQTKINL (SEQ ID NO: 162)] | 20 to 50 |
| QIMPKAGL [QIMPKAGL (SEQ ID NO: 2)] | 50 to 75 |
| EEKHFTTL [EEKHFTTL (SEQ ID NO: 192)] | 20 to 50 |
| SRFGKFVQL [SRFGKFVQL (SEQ ID NO: 209)] | 20 to 50 |
| TASAMQHVL [TASAMQHVL (SEQ ID NO: 201)] | 50 to 75 |
| VAAARAVPV [VAAARAVPV (SEQ ID NO: 200)] | 20 to 50 |
| DRLKPLKM [DRLKPLKM (SEQ ID NO: 184)] | 20 to 50 |
| MEFPNKFNTL [MEFPNKFNTL (SEQ ID NO: 206)] | 20 to 50 |
| EVRLKPIL [EVRLKPIL (SEQ ID NO: 22)] | 20 to 50 |
| FTLLRRLSL [FTLLRRLSL (SEQ ID NO: 19)] | 50 to 75 |
| LLILKTVL [LLILKTVL (SEQ ID NO: 17)] | 50 to 75 |
| RPLKPGEVL [RPLKPGEVL (SEQ ID NO: 191)] | 20 to 50 |
| IPRLAVISI [IPRLAVISI (SEQ ID NO: 178)] | 20 to 50 |
| EARPPSPAV [EARPPSPAV (SEQ ID NO: 216)] | 20 to 50 |
| LPPPQPLSL [LPPPQPLSL (SEQ ID NO: 208)] | 20 to 50 |
| EVMAQFKEI [EVMAQFKEI (SEQ ID NO: 163)] | 20 to 50 |
| SPANVRGQSL [SPANVRGQSL (SEQ ID NO: 170)] | 20 to 50 |
| APDNVLLTL [APDNVLLTL (SEQ ID NO: 189)] | 20 to 50 |
